In the supplement of paper PMC11246515:
± gives the standard deviation of the averaged measurements.

Experiment: total protein half-life in vivo (active degradation + dilution); higher = more stable protein
[1] = E. coli NCM3722 delta-clpP delta-lon delta-hslV, growth: N-lim chemostat, doubling time 6 h
[2] = E. coli NCM3722 delta-clpP, growth: N-lim chemostat, doubling time 6 h
[3] = E. coli NCM3722 delta-hslV, growth: N-lim chemostat, doubling time 6 h
[4] = E. coli NCM3722 delta-lon, growth: N-lim chemostat, doubling time 6 h
[5] = E. coli NCM3722 delta-smpB, growth: N-lim chemostat, doubling time 6 h
[6] = wild type E. coli NCM3722, growth: C-lim chemostat, doubling time 3 h
[7] = wild type E. coli NCM3722, growth: C-lim chemostat, doubling time 6 h
[8] = wild type E. coli NCM3722, growth: C-lim chemostat, doubling time 12 h
[9] = wild type E. coli NCM3722, growth: N-lim chemostat, doubling time 6 h
[10] = wild type E. coli NCM3722, growth: N-lim chemostat, doubling time 12 h
[11] = wild type E. coli NCM3722, growth: P-lim chemostat, doubling time 12 h
[12] = wild type E. coli NCM3722, growth: P-lim chemostat, doubling time 6 h

MKRSISFRPTLLALVLATNFPVAHAAVPKDMLVIGKAADPQTLDPAVTIDNNDWTVTYPSYQRLVQYKTDGDKGSTDVEGDLASSWKASDDQKEWTFTLKDNAKFADGTPVTAEAVKLSFERLLKIGQGPAEAFPKDLKIDAPDEHTVKFTLSQPFAPFLYTLANDGASIINPAVLKEHAADDARGFLAQNTAGSGPFMLKSWQKGQQLVLVPNPHYPGNKPNFKRVSVKIIGESASRRLQLSRGDIDIADALPVDQLNALKQENKVNVAEYPSLRVTYLYLNNSKAPLNQADLRRAISWSTDYQGMVNGILSGNGKQMRGPIPEGMWGYDATAMQYNHDETKAKAEWDKVTSKPTSLTFLYSDNDPNWEPIALATQSSLNKLGIIVKLEKLANATMRDRVGKGDYDIAIGNWSPDFADPYMFMNYWFESDKKGLPGNRSFYENSEVDKLLRNALATTDQTQRTRDYQQAQKIVIDDAAYVYLFQKNYQLAMNKEVKGFVFNPMLEQVFNINTMSK
total protein half-life in vivo [1]: 4.61 ± 0.059 h | total protein half-life in vivo [2]: 5.72 ± 1.4 h | total protein half-life in vivo [3]: 5 ± 0.15 h | total protein half-life in vivo [4]: 5.74 ± 0.097 h | total protein half-life in vivo [5]: 5.02 ± 0.13 h | total protein half-life in vivo [6]: 2.73 ± 0.04 h | total protein half-life in vivo [7]: 4.77 ± 0.049 h | total protein half-life in vivo [8]: 7.85 ± 0.62 h | total protein half-life in vivo [9]: 5.26 ± 0.5 h | total protein half-life in vivo [10]: 7.37 ± 0.29 h | total protein half-life in vivo [11]: 12.42 ± 0.093 h

MKRTKSIRHASFRKNWSARHLTPVALAVATVFMLAGCEKSDETVSLYQNADDCSAANPGKSAECTTAYNNALKEAERTAPKYATREDCVAEFGEGQCQQAPAQAGMAPENQAQAQQSSGSFWMPLMAGYMMGRLMGGGAGFAQQPLFSSKNPASPAYGKYTDATGKNYGAAQPGRTMTVPKTAMAPKPATTTTVTRGGFGESVAKQSTMQRSATGTSSRSMGG [P0ADT2]
total protein half-life in vivo [1]: 3.82 ± 0.98 h | total protein half-life in vivo [2]: 4.17 ± 0.3 h | total protein half-life in vivo [3]: 3.89 ± 0.12 h | total protein half-life in vivo [4]: 3.69 ± 0.096 h | total protein half-life in vivo [5]: 3.22 ± 0.56 h | total protein half-life in vivo [6]: 1.83 ± 0.4 h | total protein half-life in vivo [7]: 3.71 ± 0.29 h | total protein half-life in vivo [8]: 5.86 ± 0.6 h | total protein half-life in vivo [9]: 4.08 ± 0.88 h | total protein half-life in vivo [10]: 7.11 ± 0.26 h | total protein half-life in vivo [12]: 3.45 ± 0.38 h | total protein half-life in vivo [11]: 7.48 ± 0.2 h

MKRVLIPGVILCGADVAQAVDDKNMYMHFFEEMTVYAPVPVPVNGNTHYTSESIERLPTGNGNISDLLRTNPAVRMDSTQSTSLNQGDIRPEKISIHGASPYQNAYLIDGISATNNLNPANESDASSATNISGMSQGYYLDVSLLDNVTLYDSFVPVEFGRFNGGVIDAKIKRFNADDSKVKLGYRTTRSDWLTSHIDENNKSAFNQGSSGSTYYSPDFKKNFYTLSFNQELADNFGVTAGLSRRQSDITRADYVSNDGIVAGRAQYKNVIDTALSKFTWFASDRFTHDLTLKYTGSSRDYNTSTFPQSDREMGNKSYGLAWDMDTQLAWAKLRTTVGWDHISDYTRHDHDIWYTELSCTYGDITGRCTRGGLGHISQAVDNYTFKTRLDWQKFAVGNVSHQPYFGAEYIYSDAWTERHNQSESYVINAAGKKTNHTIYHKGKGRLGIDNYTLYMADRISWRNVSLMPGVRYDYDNYLSNHNISPRFMTEWDIFANQTSMITAGYNRYYGGNILDMGLRDIRNSWTESVSGNKTLTRYQDLKTPYNDELAMGLQQKIGKNVIARANYVYREAHDQISKSSRTDSATKTTITEYNNDGKTKTHSFSLSFELAEPLHIRQVDINPQIVFSYIKSKGNLSLNNGYEESNTGDNQVVYNGNLVSYDSVPVADFNNPLKISLNMDFTHQPSGLVWANTLAWQEARKARIILGKTNAQYISEYSDYKQYVDEKLDSSLTWDTRLSWTPQFLQQQNLTISADILNVLDSKTAVDTTNTGVATYASGRTFWLDVSMKF
total protein half-life in vivo [1]: 5.87 ± 0.22 h | total protein half-life in vivo [2]: 5.83 ± 0.27 h | total protein half-life in vivo [3]: > 8 h | total protein half-life in vivo [5]: 5.751 ± 0.012 h | total protein half-life in vivo [6]: 3.16 ± 0.12 h | total protein half-life in vivo [7]: 6.17 ± 0.26 h | total protein half-life in vivo [8]: 9.31 ± 0.88 h | total protein half-life in vivo [9]: 6.68 h | total protein half-life in vivo [10]: 12.2 ± 1.3 h | total protein half-life in vivo [12]: 6.72 h | total protein half-life in vivo [11]: 14.44 ± 0.031 h

MKRVLTALAATLPFAANAADAISGAVERQPTNWQAIIMFLIFVVFTLGITYWASKRVRSRSDYYTAGGNITGFQNGLAIAGDYMSAASFLGISALVFTSGYDGLIYSLGFLVGWPIILFLIAERLRNLGRYTFADVASYRLKQGPIRILSACGSLVVVALYLIAQMVGAGKLIELLFGLNYHIAVVLVGVLMMMYVLFGGMLATTWVQIIKAVLLLFGASFMAFMVMKHVGFSFNNLFSEAMAVHPKGVDIMKPGGLVKDPISALSLGLGLMFGTAGLPHILMRFFTVSDAREARKSVFYATGFMGYFYILTFIIGFGAIMLVGANPEYKDAAGHLIGGNNMAAVHLANAVGGNLFLGFISAVAFATILAVVAGLTLAGASAVSHDLYANVFKKGATEREELRVSKITVLILGVIAIILGVLFENQNIAFMVGLAFAIAASCNFPIILLSMYWSKLTTRGAMMGGWLGLITAVVLMILGPTIWVQILGHEKAIFPYEYPALFSITVAFLGIWFFSATDNSAEGARERELFRAQFIRSQTGFGVEQGRAH
total protein half-life in vivo [6]: > 4 h | total protein half-life in vivo [7]: 6.1 ± 0.31 h | total protein half-life in vivo [8]: 12.9 ± 1.4 h | total protein half-life in vivo [11]: 8.62 h

MKRYTPDFPEMMRLCEMNFSQLRRLLPRNDAPGETVSYQVANAQYRLTIVESTRYTTLVTIEQTAPAISYWSLPSMTVRLYHDAMVAEVCSSQQIFRFKARYDYPNKKLHQRDEKHQINQFLADWLRYCLAHGAMAIPVY [P0ADU7]
total protein half-life in vivo [1]: 6.32 ± 0.34 h | total protein half-life in vivo [2]: 5.73 ± 0.49 h | total protein half-life in vivo [3]: 1.79 h | total protein half-life in vivo [4]: 2.11 ± 0.32 h | total protein half-life in vivo [5]: 2.25 ± 0.22 h | total protein half-life in vivo [7]: 2.76 ± 0.49 h | total protein half-life in vivo [9]: 2.03 h | total protein half-life in vivo [10]: 2.84 h | total protein half-life in vivo [12]: 3.67 ± 0.23 h | total protein half-life in vivo [11]: 7.5 ± 0.71 h

MKSLQALFGGTFDPVHYGHLKPVETLANLIGLTRVTIIPNNVPPHRPQPEANSVQRKHMLELAIADKPLFTLDERELKRNAPSYTAQTLKEWRQEQGPDVPLAFIIGQDSLLTFPTWYEYETILDNAHLIVCRRPGYPLEMAQPQYQQWLEDHLTHNPEDLHLQPAGKIYLAETPWFNISATIIRERLQNGESCEDLLPEPVLTYINQQGLYR [P0A752]
total protein half-life in vivo [1]: 4.39 ± 0.63 h | total protein half-life in vivo [3]: 5 ± 0.32 h | total protein half-life in vivo [4]: 5.03 ± 0.38 h | total protein half-life in vivo [5]: 4.2 ± 0.31 h | total protein half-life in vivo [6]: 3.34 ± 0.12 h | total protein half-life in vivo [7]: 4.95 ± 0.23 h | total protein half-life in vivo [8]: 11.3 ± 2.1 h | total protein half-life in vivo [9]: 4.49 h | total protein half-life in vivo [10]: 7.22 ± 0.54 h | total protein half-life in vivo [12]: 5.47 h | total protein half-life in vivo [11]: 8.78 ± 2.9 h

MKSLSYKRIYKSQEYLATLGTIEYRSLFGSYSLTVDDTVFAMVSDGELYLRACEQSAQYCVKHPPVWLTYKKCGRSVTLNYYRVDESLWRNQLKLVRLSKYSLDAALKEKSTRNTRERLKDLPNMSFHLEAILGEVGIKDVRALRILGAKMCWLRLRQQNSLVTEKILFMLEGAIIGIHEAALPVARRQELAEWADSLTPKQEFPAELE
total protein half-life in vivo [1]: 5.96 h | total protein half-life in vivo [6]: 2.28 h | total protein half-life in vivo [7]: 4.19 h | total protein half-life in vivo [8]: 9.22 h | total protein half-life in vivo [12]: 3.79 ± 0.53 h
